Source: article PMC7979805

Biological target: endogenous actin of neonatal rat cardiomyocytes (rat (endogenous in neonatal rat cardiomyocytes)) (UniProt P68035)
Experiment: co-sedimentation; G-actin/F-actin fractionation of lysates of neonatal rat cardiomyocytes transduced with mCherry or mCherry-Tpm1.1 (G-Actin/F-actin In Vivo Assay Biochem Kit); ultracentrifugation 100,000 x g, 37 °C, 1 h; supernatant and pellet immunoblotted

Row | Substance | percent of CAP2 in the F-actin fraction (cells expressing mCherry) | percent of CAP2 in the F-actin fraction (cells expressing mCherry-Tpm1.1) | percent of Tmod1 in the F-actin fraction (cells expressing mCherry) | percent of Tmod1 in the F-actin fraction (cells expressing mCherry-Tpm1.1)
1 | endogenous CAP2 of neonatal rat cardiomyocytes (from UniProt P52481 1-477) (natural protein) | 28.6% | 25% | – | –
2 | endogenous Tmod1 of neonatal rat cardiomyocytes (from UniProt P70567 1-359) (natural protein) | – | – | 42.7% | 65.6%
